Data from paper PMC3627576 (Nucleic Acids Research, 2013).

T1: Pab-Pol D (Pyrococcus abyssi, UniProt Q9V2F4)
T1 sequence (Q9V2F4 1-954): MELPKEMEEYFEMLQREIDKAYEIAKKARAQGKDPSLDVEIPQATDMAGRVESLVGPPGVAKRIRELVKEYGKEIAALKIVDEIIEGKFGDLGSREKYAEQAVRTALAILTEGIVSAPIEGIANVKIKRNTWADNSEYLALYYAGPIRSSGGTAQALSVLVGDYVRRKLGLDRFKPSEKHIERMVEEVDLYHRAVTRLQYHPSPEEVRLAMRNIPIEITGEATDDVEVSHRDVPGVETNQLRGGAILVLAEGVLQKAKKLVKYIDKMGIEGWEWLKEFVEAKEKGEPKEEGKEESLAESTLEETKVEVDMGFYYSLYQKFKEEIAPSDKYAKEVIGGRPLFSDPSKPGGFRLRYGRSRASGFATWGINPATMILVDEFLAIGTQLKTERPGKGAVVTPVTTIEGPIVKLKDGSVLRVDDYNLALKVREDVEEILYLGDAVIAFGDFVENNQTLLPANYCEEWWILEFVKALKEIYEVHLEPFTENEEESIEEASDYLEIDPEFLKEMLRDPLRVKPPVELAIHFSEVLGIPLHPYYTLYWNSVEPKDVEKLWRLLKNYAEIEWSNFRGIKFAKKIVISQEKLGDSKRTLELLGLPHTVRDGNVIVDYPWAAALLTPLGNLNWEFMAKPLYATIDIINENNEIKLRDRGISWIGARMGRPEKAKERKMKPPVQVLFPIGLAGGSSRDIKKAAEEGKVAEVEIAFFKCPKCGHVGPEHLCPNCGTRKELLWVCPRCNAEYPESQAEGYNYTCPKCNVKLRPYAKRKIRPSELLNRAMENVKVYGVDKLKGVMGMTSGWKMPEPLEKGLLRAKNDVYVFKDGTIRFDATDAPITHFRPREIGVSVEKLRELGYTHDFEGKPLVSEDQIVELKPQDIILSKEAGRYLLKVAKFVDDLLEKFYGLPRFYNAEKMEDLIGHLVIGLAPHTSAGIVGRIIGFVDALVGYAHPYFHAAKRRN
T1 sequence (Q9V2F4 1140-1455): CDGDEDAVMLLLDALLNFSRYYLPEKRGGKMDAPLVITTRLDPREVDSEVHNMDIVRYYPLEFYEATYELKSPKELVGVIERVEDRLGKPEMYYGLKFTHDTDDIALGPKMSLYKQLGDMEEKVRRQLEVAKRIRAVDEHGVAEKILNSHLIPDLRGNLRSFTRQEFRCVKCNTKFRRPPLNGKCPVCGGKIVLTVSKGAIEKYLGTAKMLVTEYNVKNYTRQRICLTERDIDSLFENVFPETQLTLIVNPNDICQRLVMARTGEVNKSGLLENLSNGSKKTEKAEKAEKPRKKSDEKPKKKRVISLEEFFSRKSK
T1 sequence (Q9V2F3 1-619 partner): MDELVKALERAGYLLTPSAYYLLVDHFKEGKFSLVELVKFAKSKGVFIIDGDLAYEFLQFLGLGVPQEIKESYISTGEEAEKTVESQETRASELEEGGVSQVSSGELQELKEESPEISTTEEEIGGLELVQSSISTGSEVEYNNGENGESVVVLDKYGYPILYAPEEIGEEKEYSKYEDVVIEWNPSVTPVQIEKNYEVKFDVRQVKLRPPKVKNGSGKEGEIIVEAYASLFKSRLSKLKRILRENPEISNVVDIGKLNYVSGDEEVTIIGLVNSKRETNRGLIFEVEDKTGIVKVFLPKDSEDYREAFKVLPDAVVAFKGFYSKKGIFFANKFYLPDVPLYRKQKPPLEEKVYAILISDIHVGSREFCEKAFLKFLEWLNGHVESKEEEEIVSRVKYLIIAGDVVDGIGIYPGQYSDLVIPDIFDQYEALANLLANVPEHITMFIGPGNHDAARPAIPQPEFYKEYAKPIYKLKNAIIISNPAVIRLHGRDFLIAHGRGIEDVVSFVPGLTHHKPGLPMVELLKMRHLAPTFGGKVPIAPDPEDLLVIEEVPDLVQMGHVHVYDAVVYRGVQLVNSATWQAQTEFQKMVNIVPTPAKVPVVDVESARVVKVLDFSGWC

B1: primer-template -1, X=U (dsDNA)
DNA 1: TTTCTGGTUCCAGCTGGACCATTCGCCTATAGGACCTATT
DNA 2: AATAGGTCCTATAGGCGAATGGTCCAGCTGGAA
modifications: deoxyuridine at template position 9
B2: primer-template -1, X=T (dsDNA)
DNA 1: TTTCTGGTTCCAGCTGGACCATTCGCCTATAGGACCTATT
DNA 2: AATAGGTCCTATAGGCGAATGGTCCAGCTGGAA
B3: primer-template +1, X=T (dsDNA)
DNA 1: TTTCTGGTTCCAGCTGGACCATTCGCCTATAGGACCTATT
DNA 2: AATAGGTCCTATAGGCGAATGGTCCAGCTGG
B4: primer-template +1, X=U (dsDNA)
DNA 1: TTTCTGGTUCCAGCTGGACCATTCGCCTATAGGACCTATT
DNA 2: AATAGGTCCTATAGGCGAATGGTCCAGCTGG
modifications: deoxyuridine at template position 9

These molecules were tested against T1, Pab-Pol D (assay: primer extension with a single dNTP, denaturing gel). Details: exo+ enzyme; template U at +1; otherwise same.
Format: biochemical

| Molecule | primer extension with a single dNTP, denaturing gel |
| --- | --- |
| Nc1ncnc2c1ncn2[C@H]1C[C@H](O)[C@@H](COP(=O)(O)OP(=O)(O)OP(=O)(O)O)O1 [dATP] | Pab-Pol D exo^+ only incorporated adenine opposite uracil |

What follows are molecules tested against Pfu-Pol D (family-D DNA polymerase, DP1 small + DP2 large subunits) (Pyrococcus furiosus, UniProt P81409;P81412 1-1263;1-613) (assay: fluorescence anisotropy). Details: not given.
Chain of Pfu-Pol D (family-D DNA polymerase, DP1 small + DP2 large subunits) (P81409 whole entry, chain 1 of 2): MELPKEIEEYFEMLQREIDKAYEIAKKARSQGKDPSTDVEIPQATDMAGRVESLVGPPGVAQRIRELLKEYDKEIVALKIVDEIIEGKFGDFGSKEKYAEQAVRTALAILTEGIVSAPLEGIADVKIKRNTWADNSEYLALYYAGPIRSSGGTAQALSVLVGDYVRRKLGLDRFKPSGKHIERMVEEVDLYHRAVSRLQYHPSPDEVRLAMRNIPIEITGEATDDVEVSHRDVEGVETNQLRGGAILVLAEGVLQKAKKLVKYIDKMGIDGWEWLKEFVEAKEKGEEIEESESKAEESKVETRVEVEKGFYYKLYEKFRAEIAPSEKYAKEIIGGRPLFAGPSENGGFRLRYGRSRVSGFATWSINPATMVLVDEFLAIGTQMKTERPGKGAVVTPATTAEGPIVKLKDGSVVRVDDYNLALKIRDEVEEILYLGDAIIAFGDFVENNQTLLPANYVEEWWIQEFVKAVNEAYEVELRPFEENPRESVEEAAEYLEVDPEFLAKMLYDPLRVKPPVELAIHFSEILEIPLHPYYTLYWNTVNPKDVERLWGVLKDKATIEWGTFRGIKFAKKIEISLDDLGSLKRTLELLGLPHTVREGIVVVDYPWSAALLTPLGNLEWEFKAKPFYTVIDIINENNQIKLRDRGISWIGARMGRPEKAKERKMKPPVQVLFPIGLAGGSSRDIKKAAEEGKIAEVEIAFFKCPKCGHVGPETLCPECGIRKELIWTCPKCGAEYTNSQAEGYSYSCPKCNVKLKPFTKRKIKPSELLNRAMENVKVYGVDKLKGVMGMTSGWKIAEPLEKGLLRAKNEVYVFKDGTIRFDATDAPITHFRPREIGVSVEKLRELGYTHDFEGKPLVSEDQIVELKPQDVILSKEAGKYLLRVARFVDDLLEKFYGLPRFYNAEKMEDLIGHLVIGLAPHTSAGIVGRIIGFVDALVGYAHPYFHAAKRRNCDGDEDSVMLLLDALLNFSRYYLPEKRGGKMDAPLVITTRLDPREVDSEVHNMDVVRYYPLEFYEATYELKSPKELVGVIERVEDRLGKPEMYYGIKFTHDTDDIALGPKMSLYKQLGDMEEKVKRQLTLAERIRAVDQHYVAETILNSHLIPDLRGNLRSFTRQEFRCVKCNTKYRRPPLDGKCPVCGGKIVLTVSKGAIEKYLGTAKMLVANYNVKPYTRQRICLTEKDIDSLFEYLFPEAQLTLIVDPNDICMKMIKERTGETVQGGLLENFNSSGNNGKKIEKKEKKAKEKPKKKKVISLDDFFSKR
Chain of Pfu-Pol D (family-D DNA polymerase, DP1 small + DP2 large subunits) (P81412 whole entry, chain 2 of 2): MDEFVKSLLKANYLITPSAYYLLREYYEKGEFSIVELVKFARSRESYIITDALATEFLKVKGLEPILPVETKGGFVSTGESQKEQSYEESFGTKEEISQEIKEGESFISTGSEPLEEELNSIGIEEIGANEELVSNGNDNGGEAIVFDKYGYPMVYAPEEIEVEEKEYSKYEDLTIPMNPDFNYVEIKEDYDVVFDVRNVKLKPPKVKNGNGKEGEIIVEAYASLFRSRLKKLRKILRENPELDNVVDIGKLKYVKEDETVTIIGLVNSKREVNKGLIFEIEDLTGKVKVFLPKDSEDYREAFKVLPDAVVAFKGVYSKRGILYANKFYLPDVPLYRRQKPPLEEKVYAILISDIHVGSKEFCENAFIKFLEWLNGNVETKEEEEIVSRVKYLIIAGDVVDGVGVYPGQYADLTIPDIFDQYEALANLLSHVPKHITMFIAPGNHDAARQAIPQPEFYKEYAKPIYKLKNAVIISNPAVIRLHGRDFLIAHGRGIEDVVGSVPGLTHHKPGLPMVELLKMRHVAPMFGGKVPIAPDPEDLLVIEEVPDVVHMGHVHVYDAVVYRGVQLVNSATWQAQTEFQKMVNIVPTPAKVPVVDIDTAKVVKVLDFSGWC

| Molecule | Kd [nM] |
| --- | --- |
| TTTCTGGTTCCAGCTGGACCATTCGCCTATAGGACCTATT (ssDNA) [single strand, X=T] | 6 ± 1.6 |
| B1 | 5.2 ± 1.3 |
| B2 | 9.3 ± 0.6 |
| TTTCTGGTUCCAGCTGGACCATTCGCCTATAGGACCTATT (ssDNA, deoxyuridine at position 9) [single strand, X=U] | 3.4 ± 0.3 |
| B3 | 9.1 ± 1.5 |
| B4 | 5.8 ± 0.4 |
